Common to all, as to settings: protein: recombinant; tags: N-terminal His6; chain copies: 2; label: none (ethidium bromide stain); blunt
The target in data set [1] is T1, RepA (His6-RepA) (plasmid RA3 (IncU, isolated from …, UniProt Q209K0 1-98)).
T1 sequence: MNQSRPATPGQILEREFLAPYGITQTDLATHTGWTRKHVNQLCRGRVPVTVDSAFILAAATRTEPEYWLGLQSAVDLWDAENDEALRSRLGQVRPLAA
In words: EMSA; no binding up to 4 uM RepA.

Data set [2] has as its target T1, RepA (His6-RepA). In words: EMSA; bound at 0.1 uM RepA; 25 mM Tris-HCl pH 8.0, 5 mM MgCl2, 40 mM NaCl, 0.5 mg/mL BSA, 30 min at 37 C, 20 uL; 30 ng PCR fragment (0.8% agarose) or 150 ng ds oligo (10% native PAGE), 0.5x TBE. On the technique in general: In EMSA bound probe runs differently from free probe, usually more slowly.
Data set [3] deals with T1, RepA (His6-RepA). As to the kind of experiment: EMSA; no binding up to 4 uM RepA; 25 mM Tris-HCl pH 8.0, 5 mM MgCl2, 40 mM NaCl, 0.5 mg/mL BSA, 30 min at 37 C, 20 uL; 30 ng PCR fragment (0.8% agarose) or 150 ng ds oligo (10% native PAGE), 0.5x TBE.

We go through 3 molecules from publication PMC9455977, “Deciphering the Regulatory Circuits of RA3 Replication Module - Mechanisms of the Copy Number Control”.

B1: IR2* (dsDNA)
DNA 1: AAACAGTCGACTCTGATGAGGGC
DNA 2: GCCCTCATCAGAGTCGACTGTTT
For the molecule B1, the binding result in the data set with RepA (His6-RepA) [1] was “no binding”.

B2: IR1 (dsDNA)
DNA 1: TTGAAGTTTACCAACTAGGTTACACTTCAA
DNA 2: TTGAAGTGTAACCTAGTTGGTAAACTTCAA
As to B2, the binding result with RepA (His6-RepA) [2] is recorded as “binds”.

B3: IR2 (dsDNA)
DNA 1: AAACACATCATTCTGATGAGGGC
DNA 2: GCCCTCATCAGAATGATGTGTTT
In the case of B3, in the data set with RepA (His6-RepA) [3], the binding result is on record as “no binding”.
